Substitutions are numbered along the chain they refer to.
T1: FcγRIIa(R) (human, UniProt P12318 34-217)
T1 construct: extracellular domain; also called FcγRIIa R type; 2aR
T1 sequence: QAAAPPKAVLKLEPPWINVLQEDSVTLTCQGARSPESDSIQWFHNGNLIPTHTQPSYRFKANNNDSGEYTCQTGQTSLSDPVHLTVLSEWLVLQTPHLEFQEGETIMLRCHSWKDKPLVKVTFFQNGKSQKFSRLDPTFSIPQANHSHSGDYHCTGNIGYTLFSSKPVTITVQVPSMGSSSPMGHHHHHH

T2: FcγRIIa(H) (human, UniProt P12318 34-217)
T2 construct: extracellular domain; also called FcγRIIa H type; 2aH
T2 sequence: T1 sequence with R134H

T3: FcγRIIb (human, UniProt P31994 43-217)
T3 construct: extracellular domain; also called 2b
T3 sequence: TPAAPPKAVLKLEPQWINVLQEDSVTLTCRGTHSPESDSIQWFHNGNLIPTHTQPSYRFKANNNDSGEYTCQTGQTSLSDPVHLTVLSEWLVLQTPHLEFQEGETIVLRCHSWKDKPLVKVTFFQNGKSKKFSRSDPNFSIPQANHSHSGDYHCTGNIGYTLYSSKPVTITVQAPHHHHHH

B1: GpH7-A5/GpH7-B3 variant L235_15Y/GpL16-k0 (antibody, human IgG1, kappa)
heavy 1: not shown
heavy 2: not shown
light: DIVMTQSPLSLPVTPGEPASISCQASESLVHSNRNTYLHWYLQKPGQSPQLLIYKVSNRFSGVPDRFSGSGSGTDFTLKISRVEAEDVGVYYCSQNTHVPPTFGQGTKVEIERTVAAPSVFIFPPSDEQLKSGTASVVCLLNNFYPREAKVQWKVDNALQSGNSQESVTEQDSKDSTYSLSSTLTLSKADYEKHKVYACEVTHQGLSSPVTKSFNRGEC
notes: heterodimerized IgG1, one H chain mutated; also called He Ab
B2: GpH7-A5/GpH7-B3 variant S239_02A/GpL16-k0 (antibody, human IgG1, kappa)
heavy 1: not shown
heavy 2: not shown
light: B1 light
notes: as for B1
B3: GpH7-A5/GpH7-B3 variant S239_18N/GpL16-k0 (antibody, human IgG1, kappa)
heavy 1: not shown
heavy 2: not shown
light: B1 light
notes: as for B1
B4: GpH7-A5/GpH7-B3 variant S267_10E/GpL16-k0 (antibody, human IgG1, kappa)
heavy 1: not shown
heavy 2: not shown
light: B1 light
notes: as for B1
B5: GpH7-A5/GpH7-B3 variant S239_19Q/GpL16-k0 (antibody, human IgG1, kappa)
heavy 1: not shown
heavy 2: not shown
light: B1 light
notes: as for B1
B6: GpH7-A5/GpH7-B3 variant P271_14T/GpL16-k0 (antibody, human IgG1, kappa)
heavy 1: not shown
heavy 2: not shown
light: B1 light
notes: as for B1
B7: GpH7-A5/GpH7-B3 variant L235_18N/GpL16-k0 (antibody, human IgG1, kappa)
heavy 1: not shown
heavy 2: not shown
light: B1 light
notes: as for B1
B8: GpH7-A5/GpH7-B3 variant S239_09D/GpL16-k0 (antibody, human IgG1, kappa)
heavy 1: not shown
heavy 2: not shown
light: B1 light
notes: as for B1
B9: GpH7-A5/GpH7-B3 variant P238_09D/GpL16-k0 (antibody, human IgG1, kappa)
heavy 1: not shown
heavy 2: not shown
light: B1 light
notes: as for B1
B10: GpH7-A5/GpH7-B3 variant P271_15Y/GpL16-k0 (antibody, human IgG1, kappa)
heavy 1: not shown
heavy 2: not shown
light: B1 light
notes: as for B1
B11: GpH7-A5/GpH7-B3 variant S239_14T/GpL16-k0 (antibody, human IgG1, kappa)
heavy 1: not shown
heavy 2: not shown
light: B1 light
notes: as for B1
B12: GpH7-A5/GpH7-B3 variant S239_01G/GpL16-k0 (antibody, human IgG1, kappa)
heavy 1: not shown
heavy 2: not shown
light: B1 light
notes: as for B1
B13: GpH7-A5/GpH7-B3 variant S239_06M/GpL16-k0 (antibody, human IgG1, kappa)
heavy 1: not shown
heavy 2: not shown
light: B1 light
notes: as for B1
B14: GpH7-A5/GpH7-B3 variant S239_10E/GpL16-k0 (antibody, human IgG1, kappa)
heavy 1: not shown
heavy 2: not shown
light: B1 light
notes: as for B1
B15: GpH7-A5/GpH7-B3 variant P238_10E/GpL16-k0 (antibody, human IgG1, kappa)
heavy 1: not shown
heavy 2: not shown
light: B1 light
notes: as for B1
B16: GpH7-A5/GpH7-B3 variant P238_15Y/GpL16-k0 (antibody, human IgG1, kappa)
heavy 1: not shown
heavy 2: not shown
light: B1 light
notes: as for B1
B17: GpH7-A5/GpH7-B3 variant P238_19Q/GpL16-k0 (antibody, human IgG1, kappa)
heavy 1: not shown
heavy 2: not shown
light: B1 light
notes: as for B1
B18: GpH7-A5/GpH7-B3 variant P271_04F/GpL16-k0 (antibody, human IgG1, kappa)
heavy 1: not shown
heavy 2: not shown
light: B1 light
notes: as for B1
B19: GpH7-A5/GpH7-B3 variant P238_08L/GpL16-k0 (antibody, human IgG1, kappa)
heavy 1: not shown
heavy 2: not shown
light: B1 light
notes: as for B1
B20: GpH7-A5/GpH7-B3 variant P271_16H/GpL16-k0 (antibody, human IgG1, kappa)
heavy 1: not shown
heavy 2: not shown
light: B1 light
notes: as for B1
B21: GpH7-A5/GpH7-B3 variant S267_02A/GpL16-k0 (antibody, human IgG1, kappa)
heavy 1: not shown
heavy 2: not shown
light: B1 light
notes: as for B1
B22: GpH7-A5/GpH7-B3 variant L235_16H/GpL16-k0 (antibody, human IgG1, kappa)
heavy 1: not shown
heavy 2: not shown
light: B1 light
notes: as for B1
B23: GpH7-A5/GpH7-B3 variant S267_01G/GpL16-k0 (antibody, human IgG1, kappa)
heavy 1: not shown
heavy 2: not shown
light: B1 light
notes: as for B1
B24: GpH7-A5/GpH7-B3 variant L235_20W/GpL16-k0 (antibody, human IgG1, kappa)
heavy 1: not shown
heavy 2: not shown
light: B1 light
notes: as for B1
B25: GpH7-A5/GpH7-B3 variant S239_08L/GpL16-k0 (antibody, human IgG1, kappa)
heavy 1: not shown
heavy 2: not shown
light: B1 light
notes: as for B1
B26: GpH7-A5/GpH7-B3 variant S239_03V/GpL16-k0 (antibody, human IgG1, kappa)
heavy 1: not shown
heavy 2: not shown
light: B1 light
notes: as for B1
B27: GpH7-A5/GpH7-B3 variant S239_07I/GpL16-k0 (antibody, human IgG1, kappa)
heavy 1: not shown
heavy 2: not shown
light: B1 light
notes: as for B1
B28: GpH7-A5/GpH7-B3 variant S267_09D/GpL16-k0 (antibody, human IgG1, kappa)
heavy 1: not shown
heavy 2: not shown
light: B1 light
notes: as for B1

Columns and labels:
Assay in all cases: SPR (Biacore), binding relative to GpH7-A5/GpH7-B3/GpL16-k0 x100;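 further: surface plasmon resonance at 25 °C, antibody captured on a sensor chip and soluble FcγR flowed over it in HBS-EP+ running buffer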
FcγRIa = molecular target: T4, FcγRIa (human, UniProt P12314 16-292)
T4 construct: extracellular domain; also called 1a
Procedure: (§1) The antibody of interest was analyzed for its interaction with FcγR using a BiaCore™ T100, BiaCore™ A100, or BiaCore™ 4000 surface plasmon resonance system (GE Healthcare Japan Corp.). The running buffer used was HBS-EP+ (GE Healthcare Japan Corp.). The assay temperature was set to 25° C. The sensor chips used were: a chip prepared by immobilizing antigenic peptides onto Series S Sensor Chip CM5 (GE Healthcare Japan Corp.) by the amine coupling method; a chip prepared by immobilizing antigenic peptides biotinylated in advance onto Series S Sensor Chip SA (certified) (GE Healthcare Japan Corp.) through their interaction; a chip prepared by immobilizing protein L (ACTIGEN, BioVision, Inc.) onto Series S Sensor Chip CM5 (GE Healthcare Japan Corp.); and a chip prepared by immobilizing protein A/G (Thermo Fisher Scientific K.K.) onto Series S Sensor Chip CM5 (GE Healthcare Japan Corp.). The antibody of interest was captured onto any of these chips and allowed to interact with FcγR diluted with a running buffer. The antibody captured on the chip was washed off through the reaction of 10 mM glycine-HCl (pH 1.5) to regenerate the chip, which was repetitively used.

FcγRIIa(R) = molecular target: T1, FcγRIIa(R)
Procedure: as §1

FcγRIIa(H) = molecular target: T2, FcγRIIa(H)
Procedure: as §1

FcγRIIb = molecular target: T3, FcγRIIb
Procedure: as §1

T4 sequence (P12314 other isoform, or with tags, fused parts or gaps): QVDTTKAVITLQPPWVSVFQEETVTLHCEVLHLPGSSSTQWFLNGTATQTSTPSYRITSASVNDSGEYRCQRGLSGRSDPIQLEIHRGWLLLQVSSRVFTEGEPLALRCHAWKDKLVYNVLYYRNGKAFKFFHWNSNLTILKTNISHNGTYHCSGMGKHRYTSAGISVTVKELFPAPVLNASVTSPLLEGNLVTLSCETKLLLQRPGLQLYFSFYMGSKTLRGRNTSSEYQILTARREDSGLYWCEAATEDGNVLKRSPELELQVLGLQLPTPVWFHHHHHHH

Binder	He/Con 1a (FcγRIa) [%]	He/Con 2aR (FcγRIIa(R)) [%]	He/Con 2aH (FcγRIIa(H)) [%]	He/Con 2b (FcγRIIb) [%]
B1	100	150	135	170
B2	103	89.8	89.9	91.6
B3	104	104	91.1	121
B4	102	188	103	398
B5	104	79.8	80	87.3
B6	101	94.7	69.8	107
B7	95.2	77.3	73.5	62.7
B8	104	129	111	209
B9	99	140	84.7	224
B10	101	70	74	58.6
B11	104	97.4	95.9	98.6
B12	104	120	93.8	146
B13	102	94.7	95.4	102
B14	108	127	108	183
B15	105	142	74.6	235
B16	104	147	57.8	221
B17	101	97.8	54.5	112
B18	100	75.2	77.1	66.7
B19	104	132	81.8	207
B20	100	79	76.4	76.2
B21	105	167	121	256
B22	92.7	110	99.8	87.8
B23	99.9	121	72.1	110
B24	95.9	152	131	168
B25	103	114	101	142
B26	98.9	94.1	88	110
B27	101	95.9	88.5	108
B28	106	186	107	326

Source: patent publication US20260167699A1 (Chugai, published 2026)
